B1: HPK1 kinase domain (KD TSEE WT) [not stated] / HPK1 intact citron homology domain fragment (C428-E821), untagged [not stated] (parent)
chain 1: CASGPPPNSPRPGPPPSTSSPHLTAHSEPSLWNPPSRELDKPPLLPPKKEKMKRKGCALLVKLFNGCPLRIHSTAAWTHPSTKDQHLLLGAEEGIFILNRNDQEATLEMLFPSRTTWVYSINNVLMSLSGKTPHLYSHSILGLLERKETRAGNPIAHISPHRLLARKNMVSTKIQDTKGCRACCVAEGASSGGPFLCGALETSVVLLQWYQPMNKFLLVRQVLFPLPTPLSVFALLTGPGSELPAVCIGVSPGRPGKSVLFHTVRFGALSCWLGEMSTEHRGPVQVTQVEEDMVMVLMDGSVKLVTPEGSPVRGLRTPEIPMTEAVEAVAMVGGQLQAFWKHGVQVWALGSDQLLQELRDPTLTFRLLGSPRPVVVETRPVDDPTAPSNLYIQE
chain 2: DVVDPDIFNRDPRDHYDLLQRLGGGTYGEVFKARDKVSGDLVALKMVKMEPDDDVSTLQKEILILKTCRHANIVAYHGSYLWLQKLWICMEFCGAGSLQDIYQVTGSLSELQISYVCREVLQGLAYLHSQKKIHRDIKGANILINDAGEVRLADFGISAQIGAELARRLEFIGTPYWMAPEVAAVALKGGYNELCDIWSLGITAIELAELQPPLFDVHPLRVLFLMTKSGYQPPRLKEKGKWSAAFHNFIKVTLTKSPKKRPSATKMLSHQLVSQPGLNRGLILDLLDKLKN

Variants of: B1
Assay: SPR
Settings: with HPK1 intact citron homology domain fragment (C428-E821), left plot, plateau of the last (highest) of five successive CHD injections, about 800-900 s, CHD concentrations not given, parent: 30, read off a plot

response (Response Units)	Variant
43	chain 2 DVVDPDIFNRDPRDHYDLLQRLGGGTYGEVFKARDKVSGDLVALKMVKMEPDDDVSTLQKEILILKTCRHANIVAYHGSYLWLQKLWICMEFCGAGSLQDIYQVTGSLSELQISYVCREVLQGLAYLHSQKKIHRDIKGANILINDAGEVRLADFGISAQIGAELARRLEFIGTPYWMAPEVAAVALKGGYNELCDIWSLGITAIELAELQPPLFDVHPKRVLFLMTKSGYQPPRLKEKGKWSAAFHNFIKVTLTKSPKKRPSATKMLSHQLVSQPGLNRGLILDLLDKLKN [chain 2 L220K]
